The results in this text go back to article PMC10990931, “Cryo-EM structures of RAD51 assembled on nucleosomes containing a DSB site” (Nature, 2024).

Series [1] has as its target nucleosome (human histones H2A, H2B, H3.1 and H4 with Widom 601 DNA), P04908;P06899;P68431;P62805. The series is described as follows: electrophoretic mobility shift assay. The conditions noted are these: read off a plot. Background: In EMSA bound probe runs differently from free probe, usually more slowly.
Series [2] deals with the molecule itself. Put plainly: cryo-EM micrographs; RAD51 alone, without nucleosome and DNA (WT 92.5 µM, K64A/K70A 73.3 µM, R235D 55.2 µM), 1 mM AMP-PNP; 37 °C 30 min, 34 mM HEPES-NaOH pH 7.5, 135 mM NaCl, 1 mM MgCl2; filament formation.
Setting [3] is: ADP, RAD51 3.6 µM, parent: est. 100.
[4] abbreviates: AMP-PNP, RAD51 1.2 µM, parent: est. 33.
Where [5] appears, read: AMP-PNP, RAD51 2.4 µM, parent: est. 92.
Setting [6] is: AMP-PNP, RAD51 3.6 µM, parent: est. 99.

Take human RAD51 (from UniProt Q06609) K64A: the response is -1% in series [1] (setting [3]), 26% in series [1] (setting [4]), 86% in series [1] (setting [5]) and 98% in series [1] (setting [6]).

Turning to “human RAD51 (from UniProt Q06609) K64A; K70A”, the response is -5% in series [1] (setting [3]), 3% in series [1] (setting [4]), 20% in series [1] (setting [5]) and 59% in series [1] (setting [6]).

Regarding human RAD51 (from UniProt Q06609) K70A, the response is -9% in series [1] (setting [3]), 19% in series [1] (setting [4]), 78% in series [1] (setting [5]) and 93% in series [1] (setting [6]).

B1: RAD51(K64A/K70A) (natural protein, human)
chain: MAMQMQLEANADTSVEEESFGPQPISRLEQCGINANDVKKLEEAGFHTVEAVAYAPKKELINIAGISEAAADKILAEAAKLVPMGFTTATEFHQRRSEIIQITTGSKELDKLLQGGIETGSITEMFGEFRTGKTQICHTLAVTCQLPIDRGGGEGKAMYIDTEGTFRPERLLAVAERYGLSGSDVLDNVAYARAFNTDHQTQLLYQASAMMVESRYALLIVDSATALYRTDYSGRGELSARQMHLARFLRMLLRLADEFGVAVVITNQVVAQVDGAAMFAADPKKPIGGNIIAHASTTRLYLRKGRGETRICKIYDSPCLPEAEAMFAINADGVGDAKD
notes: RAD51, human; source: E. coli, purified (Ni-NTA agarose, thrombin, spermidine precipitation, MonoQ)
With B1, the binding result in series [2] is “binds”.

B2: RAD51(R235D) (natural protein, human)
chain: MAMQMQLEANADTSVEEESFGPQPISRLEQCGINANDVKKLEEAGFHTVEAVAYAPKKELINIKGISEAKADKILAEAAKLVPMGFTTATEFHQRRSEIIQITTGSKELDKLLQGGIETGSITEMFGEFRTGKTQICHTLAVTCQLPIDRGGGEGKAMYIDTEGTFRPERLLAVAERYGLSGSDVLDNVAYARAFNTDHQTQLLYQASAMMVESRYALLIVDSATALYRTDYSGDGELSARQMHLARFLRMLLRLADEFGVAVVITNQVVAQVDGAAMFAADPKKPIGGNIIAHASTTRLYLRKGRGETRICKIYDSPCLPEAEAMFAINADGVGDAKD
notes: as for B1
Turning to B2, the binding result in series [2] is “binds”.
